In publication PMC11897886 (Nucleic Acids Research, 2024):

Legend:
CBP-Upf1-CH-HD I693R = biological target: T1, CBP-Upf1-CH-HD I693R (S. cerevisiae, UniProt P30771 54-851, I693R); assay: pull-down
T1 sequence: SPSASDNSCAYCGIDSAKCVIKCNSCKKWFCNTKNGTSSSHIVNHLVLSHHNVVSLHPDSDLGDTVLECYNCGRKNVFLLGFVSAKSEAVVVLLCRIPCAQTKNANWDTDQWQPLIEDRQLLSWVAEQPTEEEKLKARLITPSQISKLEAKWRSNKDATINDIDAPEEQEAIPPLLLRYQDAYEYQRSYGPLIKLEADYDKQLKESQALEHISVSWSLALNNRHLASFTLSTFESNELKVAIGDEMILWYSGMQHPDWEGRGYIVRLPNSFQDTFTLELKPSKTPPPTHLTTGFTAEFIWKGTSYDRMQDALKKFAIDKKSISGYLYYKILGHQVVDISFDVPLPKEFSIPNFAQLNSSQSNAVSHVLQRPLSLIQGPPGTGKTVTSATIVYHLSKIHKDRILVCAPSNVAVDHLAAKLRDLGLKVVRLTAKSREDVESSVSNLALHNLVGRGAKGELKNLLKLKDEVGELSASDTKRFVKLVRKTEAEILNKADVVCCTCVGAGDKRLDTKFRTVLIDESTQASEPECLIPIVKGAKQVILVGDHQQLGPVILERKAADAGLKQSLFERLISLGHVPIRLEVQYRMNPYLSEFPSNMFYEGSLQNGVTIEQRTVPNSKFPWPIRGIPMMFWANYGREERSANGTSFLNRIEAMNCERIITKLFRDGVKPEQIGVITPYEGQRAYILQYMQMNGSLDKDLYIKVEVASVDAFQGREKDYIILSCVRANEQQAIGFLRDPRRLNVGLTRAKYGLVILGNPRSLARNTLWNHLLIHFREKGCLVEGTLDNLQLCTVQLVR

[1] = biological target: CBP-Upf1-CH-His (S. cerevisiae); assay: fluorescence polarisation

B1: Upf2 (933-1089)-His (domain or fragment)
chain: SDSDLEYGGDLDADRDIEMKRMYEEYERKLKDEEERKAEEELERQFQKMMQESIDARKSEKVVASKIPVISKPVSVQKPLLLKKSEEPSSSKETYEELSKPKKIAFTFLTKSGKKTQSRILQLPTDVKFVSDVLEEEEKLKTERNKIKKIVLKRSFD
With B1 the binding result (CBP-Upf1-CH-HD I693R) was “binds” and the Kd [1] was 430 nM.
